Results published in patent US9827336B2, “Radio-pharmaceutical complexes” (Bayer AS, priority 2012, dated 2017).

B1: AGC0715: AGC0700 conjugated to high-solubility ligand (12) (conjugate)
heavy: QVQLVQSGAEVKKPGSSVKVSCKASGYTFTDYNMHWVRQAPGQGLEWIGYIYPYNGGTGYNQKFKSKATITADESTNTAYMELSSLRSEDTAVYYCARGRPAMDYWGQGTLVTVSSASTKGPSVFPLAPSSKSTSGGTAALGCLVKDYFPEPVTVSWNSGALTSGVHTFPAVLQSSGLYSLSSVVTVPSSSLGTQTYICNVNHKPSNTKVDKKVEPKSCDKTHTCPPCPAPELLGGPSVFLFPPKPKDTLMISRTPEVTCVVVDVSHEDPEVKFNWYVDGVEVHNAKTKPREEQYNSTYRVVSVLTVLHQDWLNGKEYKCKVSNKALPAPIEKTISKAKGQPREPQVYTLPPSRDELTKNQVSLTCLVKGFYPSDIAVEWESNGGQPENNYKTTPPVLDSDGSFFLYSKLTVDKSRWQQGNVFSCSVMHEALHNHYTQKSLSLSPG
light: DIQMTQSPSSLSASVGDRVTITCRASESVDNYGISFMNWFQQKPGKAPKLLIYAASNQGSGVPSRFSGSGSGTDFTLTISSLQPDDFATYYCQQSKEVPWTFGQGTKVEIKRTVAAPSVFIFPPSDEQLKSGTASVVCLLNNFYPREAKVQWKVDNALQSGNSQESVTEQDSKDSTYSLSSTLTLSKADYEKHKVYACEVTHQGLSSPVTKSFNRGEC
modifications: chelator AGC0015 (12) conjugated; site not stated; none, one or two chelators on a chain
B2: AGC0715-Th-227: AGC0715 antibody-chelator conjugate chelated with Th-227 (conjugate)
heavy: B1 heavy
light: B1 light
modifications: chelator AGC0015 (12) conjugated, chelating Th-227; site not stated

Columns and labels:
CD33 = target: T1, CD33 (Homo sapiens, UniProt P20138); experiment: Binding to CD33-positive HL-60 cells by flow cytometry; conditions: FIG. 2
T1 construct: endogenous in cells; host or cells: HL-60 cells
Description: Binding to CD33-positive HL-60 cells were studied by flow cytometry. The determination of EC50 based on the plotted curve gives an approximate value for the affinity. The commercially available mouse anti human CD33 (BD Pharmingen; #555450, 1 mg/mL) was used as a reference antibody for assessment of the affinity, including a setup with a 50:50 mixture with the mAb to be analyzed. This assay was also used to confirm that target binding affinity was not negatively affected by conjugation with the chelator.
HL-60 cells were grown in Iscove's Modified Dulbecco's Medium (IMDM; Invitrogen; #12440-046) in the presence of 20% of fetal bovine serum and penicillin/streptomycin. […] Subsequently, 20 μL of the preparation of resuspended cells was diluted 1:500 in Coulter Isoton II Diluent, and counted using a Beckman Coulter Z2 instrument (Beckman Coulter; CA, USA). […]
The mAb or conjugate to be analyzed was prepared fresh form frozen stock by shifting the storage buffer to PBS, kept at 4° C., and used within a few days after preparation. […]
The cells were washed twice, as described above, and re-suspended in 200 μL PBS, supplemented with 0.1% BSA. All samples were analysed in 96-well round or conical bottom plates. Fluorescent signals were recorded on a Beckham Coulter Cell lab Quant SC flow cytometer (Beckman Coulter; CA, USA). […]

HL-60 tumour [1] = experiment: Biodistribution in HL-60 tumour bearing nude mice; conditions: 15 kBq/animal intravenous, HL-60 xenograft
Description: Female NMRI nude mice were xenografted with cells from the human HL-60 tumour cell line. […] 54 female NMRI nude mice (Taconic, Europe) were used in the study.
The animals were allowed an acclimation period of at least 5 days before entering the study and were at an age of 4 weeks before tumour inoculation. […] Animals were kept in individually ventilated cages (IVC, Scanbur) with HEPA filtered air and had ad libitum access to “Rat and mouse nr.3 Breeding” diet (Scanbur BK) and water acidified by addition of HCl to a molar concentration of 1 mM (pH 3.0). HL-60 cells (ATCC/United Kingdom; Catalog Number CCL-240) were grown and prepared for subcutaneous inoculation in IMDM (Invitrogen; #12440-046) in presence of 20% FCS and penicillin/streptomycin. […]
Animals were euthanized at predetermined time points post injection, and blood, muscle, femur, kidneys, lung, liver, stomach, small intestine, large intestine and tumour were collected. Tissues and blood samples were weighed, and the radioactivity in each sample was measured using gamma spectroscopy (HPGe15p or HPGe50p germanium detectors).
The measured radioactivity (Bq) was related to the radioactivity measured in 10% injection standard samples, and the percentage of Th-227 and Ra-223 were calculated and presented as % ID or % ID per gram of tissue.

[2] = system: CD33 positive HL-60 cells; experiment: Th-227-induced cell cytotoxicity (ATP, CellTiter-Glo) in HL-60 cells; format: cell-based, human; conditions: 3 nM or 0.3 nM, 44 kBq/μg, up to day 7
Description: In vitro cell cytotoxicity was investigated in CD33 positive HL-60 cells. AGC0715 and the control trastuzumab conjugated AGC0015 were used to chelate Th-227 to a specific activity of 44 kBq/μg. HL-60 cells were grown at 37° C. with 5% CO2, and split 1:5 three times a week. The day before the assay the culture medium (Iscove's Modified Dulbecco's Medium (IMDM) with 20% FBS and 1% Penicillin/Streptomycin) was replaced by new medium and the volume adjusted to give 400 000 cells per mL.
About, 1 600 000 cell (4 mL) were added to each well in a 6 well plate. The plate was incubated until next day for addition of labelled mAb, or culture medium. After adding labelled mAb, or culture medium, the plate was incubated for 4 additional hours. In one experiment AGC0715 or trastuzumab-AGC0015 was added to each well to a final concentration of 3 nM. In another experiment the final concentration was 0.3 nM.
Following incubation, the cells were washed twice in culture medium, and the ATP in the supernatant and in the pellet was measured. The cells were then split 1:2 and incubated in culture medium at 37° C. with 5% CO2. The same procedure, but with only one wash, was repeated at days 2, 4, and 7.

HL-60 tumour [3] = system: HL-60 tumour; design: species or system mice; conditions: mouse, in vivo
Description: Cell preparation and xenografting of female NMRI nude mice are done as described in Example 9. […] The mice have an approximated body weight of approximately 20 grams at the start of the study. […] Mice will be inoculated with tumour cells about 10 days before dosing in order to have mice with average size of tumours in the range from 75-150 mm3. Animals are randomized into 4 treatment groups and 3 control groups (n=10/group).
Mice in the treatment groups are injected into the tail vein with 100 μL containing 75 kBq/mL, 150 kBq/mL, 225 kBq/mL or 300 kBq/mL AGC0715-Th-227, to achieve 250, 500, 750 or 1000 kBq/kg body weight (b.w.). The mice in the control groups are administered either with vehicle only (buffer), non-radioactive antibody (AGC0715) or trastuzumab-Th-227, labelled to a specific activity of 500 kBq/kg (isotype control).
Appearance of tumours will carefully be monitored, and the tumours will be scored (if not large enough to be measured) or measured thrice a week according to the following scheme:
Tumour diameters will be measured in two dimensions using a digital caliper and the volume will be estimated by the following formula: L×W×[…] (Length×Width×½ Width). […] Body weights will be recorded once a week. […]
The mice will be terminated following maximal tumour size of 15 mm diameter. […] In case of observations of adverse clinical signs, these will be recorded as note to files. […]

T1 sequence (P20138 18-364): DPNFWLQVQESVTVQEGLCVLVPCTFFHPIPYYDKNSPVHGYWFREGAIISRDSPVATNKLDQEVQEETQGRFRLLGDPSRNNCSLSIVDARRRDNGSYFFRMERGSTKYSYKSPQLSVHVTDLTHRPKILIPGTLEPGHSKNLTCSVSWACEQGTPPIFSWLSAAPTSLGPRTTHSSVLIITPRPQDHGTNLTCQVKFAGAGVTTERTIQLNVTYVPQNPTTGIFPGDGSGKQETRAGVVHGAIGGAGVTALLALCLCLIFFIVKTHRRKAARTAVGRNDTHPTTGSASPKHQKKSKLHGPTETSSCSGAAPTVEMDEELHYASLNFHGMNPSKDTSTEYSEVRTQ

Molecule | binding affinity (CD33) | tumour targeting / build-up of radioactivity (HL-60 tumour [1]) | cellular toxicity (cell viability by ATP) [2] | adverse clinical signs (HL-60 tumour [3])
B1 | comparable to the non-conjugated AGC0700 | Build-up of radioactivity was seen in the tumour, but in no normal tissue |  | 
B2 |  | specific tumour uptake | resulted in cellular toxicity | No adverse clinical sigs
